In US20130064834A1 (published 2013):

How the values were obtained:
[1] = target: T1, Human PCSK9-myc-myc-his (human, UniProt Q8NBP7 31-692); experiment: SPR, mAb captured on anti-hFc, 100 nM antigen
T1 construct: also called hPCSK9-mmh; hPCSK9
Method: Changes in RU due to the binding of each protein to the mAb surface was determined.

[2] = target: T2, hPCSK9(D129G) (human, UniProt Q8NBP7 31-692); experiment: SPR, mAb captured, 25C;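 further: antibodies held on a sensor chip bearing chemically coupled F(ab′)2 anti-human IgG as the capture surface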
T2 construct: mmh-tagged variant hPCSK9
From the text: (§1) Each selected antibody was captured on a F(ab′)2 anti-hIgG surface created through direct chemical coupling to a BIACORE™ chip to form a captured antibody surface.

[3] = target: T3, hPCSK9(V380M) (human, UniProt Q8NBP7 31-692); experiment: SPR, mAb captured, 25C;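 further: antibodies held on a sensor chip bearing chemically coupled F(ab′)2 anti-human IgG as the capture surface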
T3 construct: mmh-tagged variant hPCSK9
From the text: as §1

[4] = target: T4, hPCSK9(S147F) (human, UniProt Q8NBP7 31-692); experiment: SPR, mAb captured, 25C;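 further: antibodies held on a sensor chip bearing chemically coupled F(ab′)2 anti-human IgG as the capture surface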
T4 construct: mmh-tagged variant hPCSK9
From the text: as §1

[5] = target: T5, hPCSK9(D343R) (human, UniProt Q8NBP7 31-692); experiment: SPR, mAb captured, 25C;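 further: antibodies held on a sensor chip bearing chemically coupled F(ab′)2 anti-human IgG as the capture surface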
T5 construct: mmh-tagged variant hPCSK9
From the text: as §1

[6] = target: T6, hPCSK9(D238R) (human, UniProt Q8NBP7 31-692); experiment: SPR, mAb captured, 25C
T6 construct: mmh-tagged variant hPCSK9
From the text: as §1

[7] = target: T7, hPCSK9(S127R) (human, UniProt Q8NBP7 31-692); experiment: SPR, mAb captured, 25C
T7 construct: mmh-tagged variant hPCSK9
From the text: as §1

[8] = target: T8, hPCSK9(R357H) (human, UniProt Q8NBP7 31-692); experiment: SPR, mAb captured, 25C
T8 construct: mmh-tagged variant hPCSK9
From the text: as §1

[9] = target: T9, hPCSK9(R237E) (human, UniProt Q8NBP7 31-692); experiment: SPR, mAb captured, 25C
T9 construct: mmh-tagged variant hPCSK9
From the text: as §1

[10] = target: T10, hPCSK9(E366K, V380M) (human, UniProt Q8NBP7 31-692); experiment: SPR, mAb captured, 25C
T10 construct: mmh-tagged variant hPCSK9
From the text: as §1

[11] = target: T11, hPCSK9(E197R) (human, UniProt Q8NBP7 31-692); experiment: SPR, mAb captured, 25C
T11 construct: mmh-tagged variant hPCSK9
From the text: as §1

[12] = target: T12, hPCSK9(F216L) (human, UniProt Q8NBP7 31-692); experiment: SPR, mAb captured, 25C
T12 construct: mmh-tagged variant hPCSK9
From the text: as §1

[13] = target: T13, hPCSK9(A341R) (human, UniProt Q8NBP7 31-692); experiment: SPR, mAb captured, 25C
T13 construct: mmh-tagged variant hPCSK9
From the text: as §1

[14] = target: T1, Human PCSK9-myc-myc-his; experiment: SPR, mAb captured, 25C
From the text: as §1

[15] = target: T14, hPCSK9(R215H) (human, UniProt Q8NBP7 31-692); experiment: SPR, mAb captured, 25C
T14 construct: mmh-tagged variant hPCSK9
From the text: as §1

[16] = target: T15, hPCSK9(R215E) (human, UniProt Q8NBP7 31-692); experiment: SPR, mAb captured, 25C
T15 construct: mmh-tagged variant hPCSK9
From the text: as §1

[17] = target: T16, hPCSK9(D192R) (human, UniProt Q8NBP7 31-692); experiment: SPR, mAb captured, 25C
T16 construct: mmh-tagged variant hPCSK9
From the text: as §1

[18] = target: T17, hPCSK9(T162R) (human, UniProt Q8NBP7 31-692); experiment: SPR, mAb captured, 25C
T17 construct: mmh-tagged variant hPCSK9
From the text: as §1

[19] = target: hPCSK9(P70A) (human, UniProt Q8NBP7 31-692); experiment: SPR, mAb captured, 25C
From the text: as §1

[20] = target: hPCSK9(P70A, S147F) (human, UniProt Q8NBP7 31-692); experiment: SPR, mAb captured, 25C
From the text: as §1

[21] = target: T18, hPCSK9(R194E) (human, UniProt Q8NBP7 31-692); experiment: SPR, mAb captured, 25C
T18 construct: mmh-tagged variant hPCSK9
From the text: as §1

[22] = target: T19, hPCSK9(D374Y)-mmh (human, UniProt Q8NBP7 31-692); experiment: competition ELISA vs EGF-A-hFc, pH 5.5
T19 construct: also called hPCSK(D374Y)-mmh
Method: (§2) Briefly, hLDLR-ecto, hLDLR EGF-A-hFc or hLDLR EGF-AB-hFc, each at 2 μg/ml, was coated on a 96-well plate in PBS buffer overnight at 4° C., and nonspecific binding sites blocked with BSA. […] The equilibrated sample solutions were transferred to receptor or receptor fragment coated plates.

[23] = target: T19, hPCSK9(D374Y)-mmh; experiment: competition ELISA vs EGF-AB-hFc, pH 5.5
Method: as §2

[24] = target: T19, hPCSK9(D374Y)-mmh; experiment: competition ELISA vs EGF-AB-hFc, pH 7.2
Method: as §2

B1: H1M300N (antibody, V domains shown)
VH: EMQLVESGGGLVQPGGSLRLSCAASGFTFSSHWMKWVRQAPGKGLEWVANINQDGSEKYYVDSVKGRFTISRDNAKNSLFLQMNSLRAEDTAVYYCARDIVLMVYDMDYYYYGMDVWGQGTTVTVSS
VL: not shown
notes: Fully human version made in CHO cells
**Q.** What does the source list for B1?
**A.** change in RU [1]: 320 RU; Kd [2]: 1.4 nM; T1/2 [2]: 88 min; Kd [3]: 2.82 nM; T1/2 [3]: 28 min; Kd [4]: 9.07 nM; T1/2 [4]: 24 min; Kd [5]: 1.18 nM; T1/2 [5]: 89 min; Kd [6]: 0.78 nM; T1/2 [6]: 123 min; Kd [7]: 1.87 nM; T1/2 [7]: 110 min; Kd [8]: 6.53 nM; T1/2 [8]: 66 min; Kd [9]: 1.03 nM; T1/2 [9]: 109 min; Kd [10]: 78.3 nM; T1/2 [10]: 1 min; Kd [11]: 0.67 nM; T1/2 [11]: 115 min; Kd [12]: 0.99 nM; T1/2 [12]: 121 min; Kd [13]: 0.34 nM; T1/2 [13]: 190 min; Kd [14]: 0.69 nM; T1/2 [14]: 120 min; Kd [15]: 1.03 nM; T1/2 [15]: 98 min; Kd [16]: 1.81 nM; Kd [17]: 0.75 nM; T1/2 [17]: 119 min; Kd [18]: 0.58 nM; T1/2 [18]: 140 min; Kd [19]: 1.68 nM; T1/2 [19]: 80 min; Kd [20]: 7.87 nM; T1/2 [20]: 24 min; Kd [21]: 0.65 nM; T1/2 [21]: 129 min; IC50 [22]: 3.46 nM; IC50 [23]: 3.94 nM; IC50 [24]: 0.142 nM

B2: H1H316P (antibody, V domains shown)
VH: EVQLVESGGGLVQPGGSLRLSCAASGFTFNNYAMNWVRQAPGKGLDWVSTISGSGGTTNYADSVKGRFIISRDSSKHTLYLQMNSLRAEDTAVYYCAKDSNWGNFDLWGRGTLVTVSS
VL: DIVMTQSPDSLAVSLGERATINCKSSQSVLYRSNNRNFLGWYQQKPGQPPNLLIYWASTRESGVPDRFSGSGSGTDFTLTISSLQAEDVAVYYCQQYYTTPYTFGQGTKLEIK
notes: Fully human mAb made in CHO cells; also called mAb316P
**Q.** B2 was tested. Which “change in RU” value [1] did it give?
**A.** 500 RU

**Q.** And the Kd [2]?
**A.** 1.27 nM

**Q.** And the T1/2 [2]?
**A.** 36 min

**Q.** What about the Kd [3] of the same binder?
**A.** 0.48 nM

**Q.** What about the T1/2 [3] of the same binder?
**A.** 63 min

**Q.** And the Kd [4]?
**A.** 1.29 nM

**Q.** What about the T1/2 [4] of the same binder?
**A.** 32 min

**Q.** And the Kd [5]?
**A.** 7.88 nM

**Q.** What about the T1/2 [5] of the same binder?
**A.** 6 min

**Q.** And the Kd [6]?
**A.** 410 nM

**Q.** And the T1/2 [6]?
**A.** 1 min

**Q.** And the Kd [7]?
**A.** 2.4 nM

**Q.** And the T1/2 [7]?
**A.** 36 min

**Q.** What about the Kd [8] of the same binder?
**A.** 6.26 nM

**Q.** And the T1/2 [8]?
**A.** 30 min

**Q.** What about the Kd [9] of the same binder?
**A.** 2.48 nM

**Q.** What about the T1/2 [9] of the same binder?
**A.** 15 min

**Q.** And the Kd [10]?
**A.** 3.33 nM

**Q.** What about the T1/2 [10] of the same binder?
**A.** 12 min

**Q.** What about the Kd [11] of the same binder?
**A.** 1.42 nM

**Q.** What about the T1/2 [11] of the same binder?
**A.** 27 min

**Q.** And the Kd [12]?
**A.** 1.83 nM

**Q.** What about the T1/2 [12] of the same binder?
**A.** 32 min

**Q.** What about the Kd [13] of the same binder?
**A.** 1.54 nM

**Q.** And the T1/2 [13]?
**A.** 21 min

**Q.** What about the Kd [14] of the same binder?
**A.** 1 nM

**Q.** What about the T1/2 [14] of the same binder?
**A.** 37 min

**Q.** What about the Kd [15] of the same binder?
**A.** 0.86 nM

**Q.** And the T1/2 [15]?
**A.** 41 min

**Q.** And the Kd [16]?
**A.** 0.9 nM

**Q.** And the T1/2 [16]?
**A.** 43 min

**Q.** And the Kd [17]?
**A.** 1.35 nM

**Q.** What about the T1/2 [17] of the same binder?
**A.** 28 min

**Q.** What about the Kd [18] of the same binder?
**A.** 0.98 nM

**Q.** What about the T1/2 [18] of the same binder?
**A.** 43 min

**Q.** What about the Kd [19] of the same binder?
**A.** 1.42 nM

**Q.** And the T1/2 [19]?
**A.** 32 min

**Q.** And the Kd [20]?
**A.** 1.18 nM

**Q.** And the T1/2 [20]?
**A.** 34 min

**Q.** And the Kd [21]?
**A.** 0.38 nM

**Q.** And the T1/2 [21]?
**A.** 71 min

**Q.** What about the IC50 [22] of the same binder?
**A.** 1.12 nM

**Q.** What about the IC50 [23] of the same binder?
**A.** 1.14 nM

**Q.** What about the IC50 [24] of the same binder?
**A.** 0.139 nM
